Consider 1 molecule from patent US20240158496A1 (Johns Hopkins, published 2024).

Experiment [1] concerns the target T1, CEACAM-1 on co-stimulated human T cells (human, UniProt P13688 35-526).
T1 construct: whole, on cells; Endogenous protein
T1 sequence (looked up): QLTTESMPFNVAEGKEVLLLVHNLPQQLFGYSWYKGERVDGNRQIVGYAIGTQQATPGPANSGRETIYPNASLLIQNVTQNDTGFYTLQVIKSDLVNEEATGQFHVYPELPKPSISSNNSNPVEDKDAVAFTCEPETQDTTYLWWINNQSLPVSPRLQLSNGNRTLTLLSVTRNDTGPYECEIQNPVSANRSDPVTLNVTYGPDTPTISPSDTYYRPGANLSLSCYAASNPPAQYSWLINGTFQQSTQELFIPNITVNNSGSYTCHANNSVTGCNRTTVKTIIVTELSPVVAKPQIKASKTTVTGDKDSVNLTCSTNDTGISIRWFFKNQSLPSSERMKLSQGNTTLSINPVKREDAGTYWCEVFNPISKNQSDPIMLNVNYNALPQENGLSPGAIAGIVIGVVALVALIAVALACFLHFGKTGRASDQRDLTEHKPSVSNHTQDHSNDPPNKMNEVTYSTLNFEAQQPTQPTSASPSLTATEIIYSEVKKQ
As to the kind of experiment: protein A-agarose immunoprecipitation of lysates of co-stimulated human PBMC treated for 6 d, CEACAM1 immunoblot. How it is done: (§1) The precipitated complexes were washed with immunoprecipitation buffer, re-suspended in NuPAGE sample buffer with reducing agent, boiled, resolved on a Bis-Tris Criterion XT Gel system and transferred to a PVDF membrane. Membranes were immunoblotted with primary antibodies [CEACAM1 (D1P4T); TIM3 (D5D5R™)] overnight, washed, incubated with secondary antibodies and visualized by Amersham ECL Western Blotting Detection Reagents.

Experiment [2] concerns the target T2, recombinant human (rh) CEACAM-1 (human, UniProt P13688 35-428, limits assumed).
T2 construct: Recombinant protein used in the in vitro protein A pull-down
T2 sequence (looked up): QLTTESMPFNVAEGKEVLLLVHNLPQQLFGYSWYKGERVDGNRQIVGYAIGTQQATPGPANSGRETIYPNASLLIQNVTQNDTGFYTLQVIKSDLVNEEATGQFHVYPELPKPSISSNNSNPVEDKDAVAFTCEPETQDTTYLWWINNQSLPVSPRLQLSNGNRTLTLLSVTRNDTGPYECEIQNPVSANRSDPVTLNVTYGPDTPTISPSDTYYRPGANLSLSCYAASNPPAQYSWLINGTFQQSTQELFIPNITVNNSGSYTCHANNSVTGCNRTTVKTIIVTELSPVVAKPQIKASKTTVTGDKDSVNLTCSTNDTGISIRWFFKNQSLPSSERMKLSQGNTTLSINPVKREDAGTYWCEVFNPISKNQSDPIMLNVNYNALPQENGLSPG
The experiment is described as follows: protein A-agarose pull-down, CEACAM1 immunoblot. On the procedure:
as §1, with “Reagents. […] This assay is also used to evaluate the binding of any antibody-ligand trap comprising a ligand-binding sequence of a ligand-binding sequence of TIM-3 ectodomain(TIM-3ecd) to rh CEACAM-1.” for “Reagents.”
For orientation: A western blot detects proteins with antibodies after separation by electrophoresis.

B1: α-PD1 mAb (nivolumab) (antibody)
heavy: not shown
light: not shown
notes: Parent antibody used as a control; also called α-PD1 antibody (nivolumab); a-PD1 mAb (nivolumab)
As for B1, the binding result was “no binding” in experiment [1] and “no binding (tested: 10 µg antibody with 5 µg rhCEACAM-1)” in experiment [2].
